# Results reported in article PMC10199020 (Nature Communications, 2023).
# “And” between values parts separate entries of the source, which are not always exact repeats. Equal values may be shown once. “Also recorded” adds a separate entry of the source.
# Assays:
# [1] = target: T1, NL-IL23R and IL12Rβ1 (IL-23 receptor) on HEK293T cells (Homo sapiens, UniProt P42701+Q5VWK5); assay: IL23-TMR NanoBRET competition assay; type: binding; set-up: Inhibition of IL23-TMR binding (Mean): unit not given here; settings: for Inhibition of IL23-TMR binding (Mean): 300 pM IL23-TMR
# T1 construct: expressed in transfected cells; host or cells: HEK293T (ATCC CRL-3216), transient transfection
# Protocol: Schematic created with Biorender.com. IL23R is shown in orange, IL12Rβ1 in purple, IL23p19 in blue, IL12p40 in green and the presence of a TAMRA fluorophore by a pink star. […] In b and c, data are mean ± SEM from 5 independent experiments conducted in either duplicate or triplicate. Details on absolute number of data points included for each concentration are provided in the associated Source Data file.
# (§1) Transient transfections for experiments outlined in Fig. 6 were conducted by seeding 100 μL of 2 × 10^5 cells/ml concentrated HEK293T cells into poly-D-lysine (PDL) coated white 96 well clear bottom assay microplates (Greiner) and incubating overnight. The following day transfection mixes were made up that contained a 4:1 ratio of IL23R to IL12Rβ1 constructs to a total concentration of 100 ng per well with a 0.3 μL per well of FuGENE HD transfection reagent (Promega) in OptiMEM (Gibco). These mixtures were incubated for 10 min before being added to the plate at 5 μL per well. The cells were then incubated overnight to allow expression. For all other experiments 2 mL containing 4 × 10^5 cells were seeded into 6 well plates and incubated 5 h before being transiently transfected with 100 μL per well of a transfection mix containing 2 μg of DNA and 6 μL of FuGENE HD. These cells were then incubated overnight before being re-suspended the following day and seeded into PDL coated white assay microplates at 100 μL containing 3 × 10^4 transfected cells. Cells were then incubated overnight before the experiment. Estimates of total expression levels for the different NL-constructs were made by comparing the luminescence levels achieved to that of a NanoLuciferase standard curve measured under the same conditions (Supplementary Fig. 1).
# Media was removed from white 96-well microplates containing transfected cells and replaced with fluoroprobe in the presence or absence of antagonist in 50 μL Hanks Balanced Salt Solution (HBSS) with 1 mg/mL BSA (Merck).
# (§2) Antagonist competition data were fit with the equation:4 Y=Bmin+Bmax−Bmin/1+10^(LogXC50−[A])C Where ‘Bmax’ is the maximum BRET signal, ‘Bmin’ is the minimum BRET signal, ‘LogXC50’ is the log of the 50% inhibiting concentration of antagonist, ‘[A]’ is the concentration of antagonist and ‘C’ is the Hill slope.
# [2] = target: T1, NL-IL23R and IL12Rβ1 (IL-23 receptor) on HEK293T cells; assay: P630-TMR NanoBRET competition assay; type: binding; settings: for Displacement of 75 nM P630-TMR (Mean): Fig. 5a
# Protocol: as §1
# Media was removed from white 96-well microplates containing transfected cells and replaced with fluoroprobe in the presence or absence of antagonist in 50 μL Hanks Balanced Salt Solution (HBSS) with 1 mg/mL BSA (Merck). After a 1-hour incubation at 37 °C without CO2, 5 μL of HBSS containing 77 μM furimizine was added to each well (final concentration 7 μM), the plate incubated for 5-minutes and the BRET signal measured using a PheraStar FS plate reader (BMG Labtech; data acquisition software version 5.41; MARS analysis software version 3.32) with a 450 ± 30 nm and >550 nm long pass filters.
# as §2
# [3] = tested on: STAT3 phosphorylation (Tyr705), IL23R + IL12Rβ1; assay: Phospho-STAT3 AlphaLISA Surefire Ultra assay, wildtype IL23R; type: cell-based, human; settings: for Individual experimental means, phospho-STAT3 signal (Figure 6 panel b): IL-23 (5nM)
# Description: (§3) To test this, we created untagged and NanoLuc tagged versions of IL23R with the C115Y mutation. […] Using an intra-receptor NanoBRET assay to measure the basal association of receptor subunits (as previously described in Lay et al.[24]), we discovered that the […] mutant still associated with a fluorescently labelled HaloTag (HT) tagged IL12Rβ1 construct although this was reduced by 50.1% from the level of association measured for wildtype IL23R, a reduction consistent with the protein’s reduced total and surface expression (Fig. 6e).
# Data are mean ± SEM from five or six (untagged) or three (NanoLuc tagged) independent experiments conducted in triplicate. For the IL23R + IL12Rβ1 data set, one outlier (11108.7) was detected using the Grubbs test (with alpha = 0.001) and removed from the statistical analysis. Statistical significance of the C115Y mutation on the alphaLISA data was assessed using a 2-way ANOVA with Tukey’s multiple comparison test. ***p < 0.001. The p value for the comparison of NL tagged construct response was 0.0001 and the p value for the comparison of untagged receptor was 0.951. c Luminescence signal measured when IL12Rβ1 was expressed with either NL-IL23R or the C115Y mutant. Data are mean ± SEM generated from the mean luminescence values of seven (C115Y) or eight independent experiments performed in pentuplicate. d The proportion of luminescence from c that emanated from extracellular protein (as defined by the reduction in luminescence after treatment with 60 μM NanoLuc extracellular inhibitor). Data are mean ± SEM generated from the mean luminescence values of five (C115Y) or six independent experiments performed in triplicate. e The BRET ratio generated from HaloTag-618 labelled cells expressing NL tagged wildtype or C115Y IL23R with HT-IL12Rβ1 or unlabelled IL12Rβ1. […] Statistical significance of differences in mean values shown in c–e were measured using a 2-sided, non-paired t test with ** indicating a p value of <0.005 and *** indicating a p value of <0.0005. […]
# [4] = tested on: STAT3 phosphorylation (Tyr705), C115Y IL23R + IL12Rβ1; assay: Phospho-STAT3 AlphaLISA Surefire Ultra assay, C115Y IL23R; type: cell-based, human; settings: for Mean, phospho-STAT3 signal (Figure 6 panel b): 5 nM IL-23; for Individual experimental means, phospho-STAT3 signal (Figure 6 panel b): IL-23 (5nM)
# Description: as §3
# Data are mean ± SEM from five or six (untagged) or three (NanoLuc tagged) independent experiments conducted in triplicate. For the IL23R + IL12Rβ1 data set, one outlier (11108.7) was detected using the Grubbs test (with alpha = 0.001) and removed from the statistical analysis. Statistical significance of the C115Y mutation on the alphaLISA data was assessed using a 2-way ANOVA with Tukey’s multiple comparison test. ***p < 0.001. The p value for the comparison of NL tagged construct response was 0.0001 and the p value for the comparison of untagged receptor was 0.951. c Luminescence signal measured when IL12Rβ1 was expressed with either NL-IL23R or the C115Y mutant. Data are mean ± SEM generated from the mean luminescence values of seven (C115Y) or eight independent experiments performed in pentuplicate. d The proportion of luminescence from c that emanated from extracellular protein (as defined by the reduction in luminescence after treatment with 60 μM NanoLuc extracellular inhibitor). Data are mean ± SEM generated from the mean luminescence values of five (C115Y) or six independent experiments performed in triplicate. e The BRET ratio generated from HaloTag-618 labelled cells expressing NL tagged wildtype or C115Y IL23R with HT-IL12Rβ1 or unlabelled IL12Rβ1. Data are mean ± SEM generated from the mean BRET values of three independent experiments performed in pentuplicate. Statistical significance of differences in mean values shown in c–e were measured using a 2-sided, non-paired t test with ** indicating a p value of <0.005 and *** indicating a p value of <0.0005. The p values for the results shown in c, d and e were p = 0.148, 0.0005 and 0.0013 respectively. Source data are provided as a Source Data file.
# Phosphorylation of STAT3 was measured using an AlphaLISA Surefire Ultra assay as previously described. Briefly, transfected HEK293T cells were plated into a poly-D-lysine coated 96 well tissue culture microplate and then incubated overnight. The following day media was replaced with serum free DMEM and the cells incubated for 3 h. […] An AlphaLISA SureFire Ultra assay kit (Perkin Elmer #ALSU-PST3) was then used to measure STAT3 phosphorylation at residue Tyr705. Assays were performed according to the manufacturers’ instructions.
# T1 sequence (Q5VWK5 24-629, other chains not shown): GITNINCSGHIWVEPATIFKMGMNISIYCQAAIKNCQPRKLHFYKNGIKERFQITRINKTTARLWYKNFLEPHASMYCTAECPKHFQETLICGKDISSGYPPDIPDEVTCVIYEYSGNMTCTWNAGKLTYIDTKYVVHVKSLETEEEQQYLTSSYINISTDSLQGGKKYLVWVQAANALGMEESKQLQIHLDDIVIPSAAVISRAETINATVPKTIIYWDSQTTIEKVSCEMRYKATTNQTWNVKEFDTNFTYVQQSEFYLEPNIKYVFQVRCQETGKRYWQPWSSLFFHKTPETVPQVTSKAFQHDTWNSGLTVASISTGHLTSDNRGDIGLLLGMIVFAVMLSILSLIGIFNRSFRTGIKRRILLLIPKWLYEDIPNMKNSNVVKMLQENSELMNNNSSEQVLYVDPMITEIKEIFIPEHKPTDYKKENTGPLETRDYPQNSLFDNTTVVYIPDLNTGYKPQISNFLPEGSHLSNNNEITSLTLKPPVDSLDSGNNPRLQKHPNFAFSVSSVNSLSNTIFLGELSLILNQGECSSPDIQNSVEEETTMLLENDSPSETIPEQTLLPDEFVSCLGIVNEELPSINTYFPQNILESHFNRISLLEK
substance,measurement,setting,value
TEEEQQLY [octapeptide reported to be a negative allosteric modulator (NAM) of the IL-23 receptor],Inhibition of IL23-TMR binding (Mean),[1]; [TEEEQQLY] -4.56864 logM,13.433
same,Inhibition of IL23-TMR binding (Mean),[1]; [TEEEQQLY] -5.04576 logM,6.927
same,Inhibition of IL23-TMR binding (Mean),[1]; [TEEEQQLY] -5.52288 logM,9.9603
same,Inhibition of IL23-TMR binding (Mean),[1]; [TEEEQQLY] -6 logM,11.7979
same,Inhibition of IL23-TMR binding (Mean),[1]; [TEEEQQLY] -6.47712 logM,6.708
same,Inhibition of IL23-TMR binding (Mean),[1]; [TEEEQQLY] -6.95424 logM,2.6729
same,Inhibition of IL23-TMR binding (Mean),[1]; [TEEEQQLY] -7.43136 logM,2.475
same,Inhibition of IL23-TMR binding (Mean),[1]; [TEEEQQLY] -7.90849 logM,7.532
same,Displacement of IL23-TMR,[1]; NL-IL23R and IL12Rβ1,not to displace IL23-TMR; also recorded: Did not displace labelled probe
same,Displacement of 75 nM P630-TMR (Mean),[2]; [TEEEQQLY] -4.09691 logM,-0.7672
same,Displacement of 75 nM P630-TMR (Mean),[2]; [TEEEQQLY] -4.79588 logM,3.824
same,Displacement of 75 nM P630-TMR (Mean),[2]; [TEEEQQLY] -5.49485 logM,1.157
same,Displacement of 75 nM P630-TMR (Mean),[2]; [TEEEQQLY] -6.19382 logM,-2.412
same,Displacement of 75 nM P630-TMR (Mean),[2]; [TEEEQQLY] -6.89279 logM,-1.937
same,Displacement of 75 nM P630-TMR (Mean),[2]; [TEEEQQLY] -7.59176 logM,-4.432
same,Displacement of 75 nM P630-TMR (Mean),[2]; [TEEEQQLY] -8.29073 logM,-0.4835
same,Displacement of 75 nM P630-TMR (Mean),[2]; [TEEEQQLY] -8.9897 logM,-1.857
same,Displacement of P630-TMR,[2]; NL-IL23R and IL12Rβ1,did not displace P630-TMR; also recorded: Did not displace labelled probe
"IL-23: heterodimeric cytokine, disulphide linked complex of IL12p40 and IL23p19","Mean, phospho-STAT3 signal (Figure 6 panel b)","[3]; 5 nM IL-23, transfection NL-IL23R + IL12Rβ1, N 3",5562.78
same,"Individual experimental means, phospho-STAT3 signal (Figure 6 panel b)",[3]; transfection IL23R + IL12Rβ1,2394 and 1760.67 and 1431.33 and 2064.67 and 2014
same,"Individual experimental means, phospho-STAT3 signal (Figure 6 panel b)",[3]; transfection NL-IL23R + IL12Rβ1,2330.67 and 6586.67 and 7771
same,"Mean, phospho-STAT3 signal (Figure 6 panel b)","[4]; transfection IL23R (C115Y) + IL12Rβ1, N 6",1388.06
same,"Mean, phospho-STAT3 signal (Figure 6 panel b)","[4]; transfection NL-IL23R (C115Y) + IL12Rβ1, N 3",1262.44
same,"Individual experimental means, phospho-STAT3 signal (Figure 6 panel b)",[4]; transfection IL23R (C115Y) + IL12Rβ1,1279.33 and 1494.67 and 1589.67 and 1247.67 and 1140 and 1577
same,"Individual experimental means, phospho-STAT3 signal (Figure 6 panel b)",[4]; transfection NL-IL23R (C115Y) + IL12Rβ1,760 and 1260.33 and 1767
